Results taken from patent publication US20110263454A1, “Methods of Identifying Functional Characteristics of Promoters, Transcription Modifying Proteins and Transcription Modulating Agents” (Salk Institute for Biological Studies, priority 2008, published 2011).

Experiments:
mCAR promoter = test: NHR-promoter luciferase screen, mCAR promoter; assay type: cell-based, mouse; settings: for luciferase activity normalized to lacZ activity and to a control, mCAR: mCAR promoter-luciferase, CV-1 cells, NHR +/- ligand, control = 1.00; for Luc. act., normalized to lacZ / Normalized Luc. act., normalized to control: mCAR promoter, HR/ligand component
Procedure, shortened: (§1)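 CV-1 cells were co-transfected with 50 ng NHR (homodimer or NHR/RXR heterodimer), 100 ng promoter-luciferase construct and 50 ng LacZ. Luciferase was normalized to LacZ and to a no-NHR/no-ligand control.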

mPer1 promoter = test: NHR-promoter luciferase screen, mPer1 promoter; assay type: cell-based, mouse; settings: for Luc. act., normalized to lacZ / Normalized Luc. act., normalized to control: Per1 promoter reporter, co-transfected HR, with or without its ligand; for Normalized Luc. act., normalized to control: relative to control; for luciferase activity normalized to lacZ activity and to a control, mPer1: mPer1 promoter-luciferase, CV-1 cells, NHR +/- ligand, control = 1.00
Procedure, shortened: as §1

mUCP3 promoter = test: NHR-promoter luciferase screen, mUCP3 promoter; assay type: cell-based, mouse; settings: for Normalized Luc. act., normalized to control / Luc. act., normalized to lacZ: mUCP3 promoter reporter; for Normalized Luc. act., normalized to control: HR without or with its ligand, relative to control; for Luc. act., normalized to lacZ: hormone receptor (HR) without or with its ligand; for mUCP3 promoter reporter activity: transcription factor +/- ligand, control = 1.00
Procedure, shortened: as §1

Bmal1 promoter = test: NHR-promoter luciferase screen, Bmal1 promoter; assay type: cell-based, mouse; settings: for Luc. act., normalized to lacZ / Normalized Luc. act., normalized to control: Bmal1 promoter, HR component without or with ligand; for mBmal1 promoter reporter activity: transcription factor +/- ligand, control = 1.00
Procedure, shortened: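 Luciferase activity was measured 48 h after transfection, normalized to LacZ and then to a control lacking NHR or ligand. CV-1 cells carried 100 ng Bmal1 reporter, 50 ng NHR construct and 50 ng LacZ.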

hPPARg1 promoter = test: NHR-promoter luciferase screen, hPPARg1 promoter; assay type: cell-based, human; settings: for Luc. act., normalized to lacZ / Normalized Luc. act., normalized to control: PPARG1 promoter, hormone receptor with or without its ligand; for Normalized Luc. act., normalized to control: relative to control; for Results of assays of transcription factor (+/- ligand) with hPPARg1: Table 6d, luciferase activity relative to control (control = 1.00)
Procedure, shortened: as §1

Row | Molecule | luciferase activity normalized to lacZ activity and to a control, mCAR (mCAR promoter) | Luc. act., normalized to lacZ (mCAR promoter) | Normalized Luc. act., normalized to control (mCAR promoter) | Luc. act., normalized to lacZ (mPer1 promoter) | Normalized Luc. act., normalized to control (mPer1 promoter) | luciferase activity normalized to lacZ activity and to a control, mPer1 (mPer1 promoter) | Normalized Luc. act., normalized to control (mUCP3 promoter) | Luc. act., normalized to lacZ (mUCP3 promoter) | mUCP3 promoter reporter activity (mUCP3 promoter) | Luc. act., normalized to lacZ (Bmal1 promoter) | Normalized Luc. act., normalized to control (Bmal1 promoter) | mBmal1 promoter reporter activity (Bmal1 promoter) | Luc. act., normalized to lacZ (hPPARg1 promoter) | Normalized Luc. act., normalized to control (hPPARg1 promoter) | Results of assays of transcription factor (+/- ligand) with hPPARg1 (hPPARg1 promoter)
1 | RORb: RAR-related Orphan Receptor β (NR1F2), cDNA driver (protein, UniProt Q92753 1-470, looked up) Nuclear receptor ROR-beta: MCENQLKTKADATAQIEVIPCKICGDKSSGIHYGVITCEGCKGFFRRSQQNNASYSCPRQRNCLIDRTNRNRCQHCRLQKCLALGMSRDAVKFGRMSKKQRDSLYAEVQKHQQRLQEQRQQQSGEAEALARVYSSSISNGLSNLNNETSGTYANGHVIDLPKSEGYYNVDSGQPSPDQSGLDMTGIKQIKQEPIYDLTSVPNLFTYSSFNNGQLAPGITMTEIDRIAQNIIKSHLETCQYTMEELHQLAWQTHTYEEIKAYQSKSREALWQQCAIQITHAIQYVVEFAKRITGFMELCQNDQILLLKSGCLEVVLVRMCRAFNPLNNTVLFEGKYGGMQMFKALGSDDLVNEAFDFAKNLCSLQLTEEEIALFSSAVLISPDRAWLIEPRKVQKLQEKIYFALQHVIQKNHLDDETLAKLIAKIPTITAVCNLHGEKLQVFKQSHPEIVNTLFPPLYKELFNPDCATGCK | 1.15 | 43.7 | 1.1 | 112.0 | 0.8 | 0.78 | 1.3 | 0.9 | 1.33 | 16.5 | 1.1 | 1.06 | 51.1 | 0.7 | 0.74
2 | RXRg: Retinoic X Receptor γ (NR2B3), cDNA driver (protein, UniProt P48443 1-463, looked up) Retinoic acid receptor …: MYGNYSHFMKFPAGYGGSPGHTGSTSMSPSAALSTGKPMDSHPSYTDTPVSAPRTLSAVGTPLNALGSPYRVITSAMGPPSGALAAPPGINLVAPPSSQLNVVNSVSSSEDIKPLPGLPGIGNMNYPSTSPGSLVKHICAICGDRSSGKHYGVYSCEGCKGFFKRTIRKDLIYTCRDNKDCLIDKRQRNRCQYCRYQKCLVMGMKREAVQEERQRSRERAESEAECATSGHEDMPVERILEAELAVEPKTESYGDMNMENSTNDPVTNICHAADKQLFTLVEWAKRIPHFSDLTLEDQVILLRAGWNELLIASFSHRSVSVQDGILLATGLHVHRSSAHSAGVGSIFDRVLTELVSKMKDMQMDKSELGCLRAIVLFNPDAKGLSNPSEVETLREKVYATLEAYTKQKYPEQPGRFAKLLLRLPALRSIGLKCLEHLFFFKLIGDTPIDTFLMEMLETPLQIT | 1.25 | 47.5 | 1.2 | 94.5 | 0.7 | 0.66 | 1.4 | 1.0 | 1.41 | 12.7 | 0.8 | 0.81 | 43.7 | 0.6 | 0.63
3 | FXR: Farnesoid X Receptor (NR1H4), cDNA driver (protein, UniProt Q96RI1 1-486, looked up) Bile acid receptor: MVMQFQGLENPIQISPHCSCTPSGFFMEMMSMKPAKGVLTEQVAGPLGQNLEVEPYSQYSNVQFPQVQPQISSSSYYSNLGFYPQQPEEWYSPGIYELRRMPAETLYQGETEVAEMPVTKKPRMGASAGRIKGDELCVVCGDRASGYHYNALTCEGCKGFFRRSITKNAVYKCKNGGNCVMDMYMRRKCQECRLRKCKEMGMLAECMYTGLLTEIQCKSKRLRKNVKQHADQTVNEDSEGRDLRQVTSTTKSCREKTELTPDQQTLLHFIMDSYNKQRMPQEITNKILKEEFSAEENFLILTEMATNHVQVLVEFTKKLPGFQTLDHEDQIALLKGSAVEAMFLRSAEIFNKKLPSGHSDLLEERIRNSGISDEYITPMFSFYKSIGELKMTQEEYALLTAIVILSPDRQYIKDREAVEKLQEPLLDVLQKLCKIHQPENPQHFACLLGRLTELRTFNHHHAEMLMSWRVNDHKFTPLLCEIWDVQ | 0.88 | 33.6 | 0.9 | 98.0 | 0.7 | 0.68 | 1.3 | 0.9 | 1.30 | 15.6 | 1.0 | 1.00 | 54.8 | 0.8 | 0.80
4 | PXR: Pregnane X Receptor (NR1I2), cDNA driver (protein, UniProt O75469 1-434, looked up) Nuclear receptor subfamily 1 …: MEVRPKESWNHADFVHCEDTESVPGKPSVNADEEVGGPQICRVCGDKATGYHFNVMTCEGCKGFFRRAMKRNARLRCPFRKGACEITRKTRRQCQACRLRKCLESGMKKEMIMSDEAVEERRALIKRKKSERTGTQPLGVQGLTEEQRMMIRELMDAQMKTFDTTFSHFKNFRLPGVLSSGCELPESLQAPSREEAAKWSQVRKDLCSLKVSLQLRGEDGSVWNYKPPADSGGKEIFSLLPHMADMSTYMFKGIISFAKVISYFRDLPIEDQISLLKGAAFELCQLRFNTVFNAETGTWECGRLSYCLEDTAGGFQQLLLEPMLKFHYMLKKLQLHEEEYVLMQAISLFSPDRPGVLQHRVVDQLQEQFAITLKSYIECNRPQPAHRFLFLKIMAMLTELRSINAQHTQRLLRIQDIHPFATPLMQELFGITGS | 1.49 | 56.8 | 1.5 | 186.7 | 1.3 | 1.30 | 1.3 | 0.9 | 1.34 | 31.2 | 2.0 | 2.00 | 63.3 | 0.9 | 0.92
5 | CAR: Constitutive Androstane Receptor (NR1I3), cDNA driver (protein, UniProt Q14994 1-352, looked up) Nuclear receptor subfamily 1 …: MASREDELRNCVVCGDQATGYHFNALTCEGCKGFFRRTVSKSIGPTCPFAGSCEVSKTQRRHCPACRLQKCLDAGMRKDMILSAEALALRRAKQAQRRAQQTPVQLSKEQEELIRTLLGAHTRHMGTMFEQFVQFRPPAHLFIHHQPLPTLAPVLPLVTHFADINTFMVLQVIKFTKDLPVFRSLPIEDQISLLKGAAVEICHIVLNTTFCLQTQNFLCGPLRYTIEDGARVSPTVGFQVEFLELLFHFHGTLRKLQLQEPEYVLLAAMALFSPDRPGVTQRDEIDQLQEEMALTLQSYIKGQQRRPRDRFLYAKLLGLLAELRSINEAYGYQIQHIQGLSAMMPLLQEICS | 0.51 | 19.41 | 0.5 | 86.6 | 0.6 | 0.60 | 0.9 | 0.6 | 0.90 | 16.4 | 1.1 | 1.05 | 46.4 | 0.7 | 0.67
6 | RXRb: Retinoic X Receptor β (NR2B2), cDNA driver (protein, UniProt P28702 1-533, looked up) Retinoic acid receptor …: MSWAARPPFLPQRHAAGQCGPVGVRKEMHCGVASRWRRRRPWLDPAAAAAAAVAGGEQQTPEPEPGEAGRDGMGDSGRDSRSPDSSSPNPLPQGVPPPSPPGPPLPPSTAPSLGGSGAPPPPPMPPPPLGSPFPVISSSMGSPGLPPPAPPGFSGPVSSPQINSTVSLPGGGSGPPEDVKPPVLGVRGLHCPPPPGGPGAGKRLCAICGDRSSGKHYGVYSCEGCKGFFKRTIRKDLTYSCRDNKDCTVDKRQRNRCQYCRYQKCLATGMKREAVQEERQRGKDKDGDGEGAGGAPEEMPVDRILEAELAVEQKSDQGVEGPGGTGGSGSSPNDPVTNICQAADKQLFTLVEWAKRIPHFSSLPLDDQVILLRAGWNELLIASFSHRSIDVRDGILLATGLHVHRNSAHSAGVGAIFDRVLTELVSKMRDMRMDKTELGCLRAIILFNPDAKGLSNPSEVEVLREKVYASLETYCKQKYPEQQGRFAKLLLRLPALRSIGLKCLEHLFFFKLIGDTPIDTFLMEMLEAPHQLA | 1.27 | 48.6 | 1.3 | 50.5 | 0.4 | 0.35 | 0.8 | 0.6 | 0.83 | 12.5 | 0.8 | 0.80 | 23.1 | 0.3 | 0.34
